Laboratory results taken from the supplement of paper PMC10567573.
± gives the standard deviation.

Experiment: protein stability index of a GFP-peptide fusion (GPS, HEK-293T) (PSI 1-6); higher = more stable
Conditions: c terminus: a fixed tail appended
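Further: 24-mer peptide tiles fused after GFP, lentivirally expressed, FACS-sorted into six equal bins by GFP/DsRed ratio, decoded by Illumina sequencing, PSI is the read-weighted mean bin number.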

Sequence | protein stability index (treatment: DMSO) | protein stability index (treatment: MLN4924 1 uM, 8 h)
LQQDFQNIQETHRLYRLKLEELTK [TMEM120A] | 3.3 ± 0.38 | 3.37 ± 0.28
DATWAAVAACTKEIDTQGRHLAHS [C10orf62] | 4.04 ± 0.24 | 4.09 ± 0.39
IRERATIEETYSKAMAKLSKLASN [FCHO1] | 3.02 ± 0.19 | 2.91 ± 0.3
WMMQNLLLEEGGLVQVESVNLQVA [UFD1] | 2.1 ± 0.29 | 2.33 ± 0.59
MAMYWGTSRWSSMEIMEAYSVARQ [KCNAB2] | 2.43 ± 0.52 | 2.06 ± 0.43
DFWLNMAALTEALQRQAEQNPTAS [FCHO1] | 2.51 ± 0.21 | 2.47 ± 0.35
PRAAGTDGSDFQHRERVAMHYQMS [JAGN1] | 3.96 ± 0.25 | 4.06 ± 0.18
EELSVLEVFEGREDSIFGDPKKLL [MAGEA6] | 4.22 ± 0.35 | 4.32 ± 0.28
QHLGEYENVLAALEGLNLSILKAM [NECAB1] | 2.25 ± 0.24 | 2.38 ± 0.23
IVRFLESNWFVWVTQMNHIPMHID [FADS1] | 3.08 ± 0.95 | 3.1 ± 1
PMQESKAEGNNQAPGEEEEEEEEA [CHGA] | 5.49 ± 0.39 | 5.74 ± 0.15
EKGLPLRKTHVLLGRSHDTVQEAA [MFSD9] | 4.22 ± 0.23 | 4.15 ± 0.34
KRFTDAGFEHYDLFFIDGSTPSDN [CDC14A] | 3.45 ± 0.16 | 3.45 ± 0.084
VTSDVNKLSSFYSLKLIKRLYVDK [SERPINB5] | 2.18 ± 0.18 | 2.29 ± 0.18
FPYEYSYGLQGGMAFLDKRLQVKE [ATL3] | 2.53 ± 0.1 | 2.69 ± 0.12
RFSRQCVVDKDKRNQCRYCRLKKC [HNF4A] | 3.22 ± 0.46 | 3.5 ± 0.61
FMLLLIFFAFLHCWLNAFAEMLRF [SOAT2] | 3.07 ± 0.18 | 2.88 ± 0.57
VVELLLAHGADPTHRLKDGSTMLI [ANKRD17] | 2.13 ± 0.34 | 2.27 ± 0.85
LGHAVLPSNARGPILSRSTSTGSA [SPRY1] | 3.93 ± 0.18 | 4.15 ± 0.098
VTTTSSASVTTTSNASGRRTSDVR [KRT13] | 5.07 ± 0.15 | 5.24 ± 0.15
PITAHAEVEVVEEAKCCCFFKRKR [CSNK1G1] | 2.96 ± 0.73 | 3.23 ± 1.2
DRGTRVVFIDFSVYNANINLFCVL [PKD2L1] | 3.11 ± 0.08 | 2.95 ± 0.31

Sequence | protein stability index (treatment: DMSO) | protein stability index (treatment: MLN4924 1 uM, 8 h)
EPGRLGSSSPASVTTEQLGAKMTE [PXN] | 5.2 ± 0.46 | 5.23 ± 0.24
YLHTNVALVAPLLRLENNHCHIEE [VPS39] | 2.33 ± 0.2 | 2.74 ± 0.34
RTLWSGLPATLVMTVPATAIYFTA [SLC25A39] | 3.07 ± 0.42 | 3.1 ± 0.68
DHPGTPPHKTFRKLRLFDTPHTPK [WEE1] | 3.88 ± 0.11 | 3.98 ± 0.15
NGTEDLPYAMKPIDYYTETKILQE [NSDHL] | 4.28 ± 0.17 | 4.22 ± 0.051
PLLLLCNIKPRRYLTVVFEHDAWF [SLC29A1] | 3.09 ± 0.71 | 3.06 ± 0.52
LVVFAVLGFKANIMNEKCVVENAE [SLC6A17] | 2.97 ± 0.32 | 2.82 ± 0.39
EDFIFSHFFGDKALKKRSGKKDKH [PBXIP1] | 3.82 ± 0.079 | 4.13 ± 0.16
RWSRVGGQRFYSRVLSPLHRGPSG | 2.9 ± 0.27 | 2.72 ± 0.42
VHYLHSKRIAHFDLKPENIMLLDK [DAPK3] | 2.33 ± 0.34 | 2.17 ± 0.28
LLISCAVSYRGAWWYRNCHYANLN [TNXB] | 2.97 ± 0.19 | 2.99 ± 0.72
LLCWSVWWALSTCGYFQVVNYTQG [SLC19A2] | 3.41 ± 0.59 | 3.61 ± 0.29
AALQRSLAAALAQHSVPLQLELRA [TRADD] | 2.89 ± 1.2 | 2.46 ± 0.73
PEITTEDIKAAFAPFGRISDARVV [TIA1] | 3.34 ± 0.21 | 3.3 ± 0.13
EKCKEEFVEEIKKLATQHKQLISQ [ZMYND11] | 4.2 ± 0.28 | 4.06 ± 1.2
KCKQVKEKCKEEFVEEIKKLATQH [ZMYND11] | 4.12 ± 0.15 | 4.14 ± 0.23
IHGLPTEGYQALYHAVVEPMLWNP [C22orf31] | 2.19 ± 0.11 | 2.13 ± 0.21
LLHSRNEGVATYAAAVLFRMSEDK [CTNNB1] | 2.9 ± 0.36 | 3.22 ± 0.087
VGAAETTLTELRRTVQSLEIDLDS [KRT18] | 4.51 ± 0.19 | 4.86 ± 0.24
AKGHVKLSDFGLCTGLKKAHRTEF [STK38L] | 2.75 ± 0.21 | 2.61 ± 0.15
AALIEAIQDRLSNTLQTYIRCRHP [VDR] | 2.49 ± 0.5 | 2.54 ± 0.32
HRGLLTMQLKSPMPSSTTQKDSYQ [SPAG8] | 3.87 ± 0.25 | 4 ± 0.21

Sequence | protein stability index (treatment: DMSO) | protein stability index (treatment: MLN4924 1 uM, 8 h)
EEKKAKVAPPAKQAQQKKAPAKKA [BRD3] | 5.45 ± 0.29 | 5.49 ± 0.17
PLLCPSYQSYFKTIEELQQKILCA [KRT34] | 4 ± 0.19 | 
NNTLVALPIVAIENILSFMSYDEI [FBXO28] | 3.22 ± 0.33 | 3 ± 0.61
RRCGELKRKLGLTALVGLRQNLSK [TPD52L3] | 2.41 ± 0.34 | 2.57 ± 0.16
SHRVVLRPRGKERHKSGVHQPPQA [LYSMD4] | 3.91 ± 0.2 | 3.98 ± 0.3
SDENGGTYVSPPGNEEEESKIFTT [DDIT3] | 5.53 ± 0.36 | 5.49 ± 0.31
DRSRTVSASSTGDLPKAKTRAADL [SRPK2] | 4.94 ± 0.11 | 4.68 ± 0.24
YRWQGRRWEPSGKAEPRLPDRVYI [TBX6] | 2.11 ± 0.26 | 2.22 ± 0.37
TVDSMIPAYATTRIRSQIGNTESE [GDAP1] | 4.86 ± 0.16 | 4.99 ± 0.076
LVQLRNMVQQIQENSVEFEACLVA [TRIM9] | 2.25 ± 0.1 | 2.54 ± 0.37
ELLDLSKQYDQQFPDGDDEFDSPH [STX11] | 4.89 ± 0.2 | 4.9 ± 0.17
PSAAGAPASAPGEPRQRRLLLLDL [ANKRD9] | 2.86 ± 0.29 | 3.11 ± 0.4
ADQKLVIIKQIPVEQMTKEERQAA [NEK8] | 4.62 ± 0.24 | 4.61 ± 0.23
QNIQSWSNHSWNTQTWCTQSWNNQ [NANOGP8] | 2.53 ± 0.37 | 2.61 ± 0.24
LLQGAGLDVERWLKPAMTQAQDEV [FCHSD1] | 3.6 ± 0.28 | 3.54 ± 0.26
SAEQLKAQAIDFINRCSVLRQLGC [SPOPL] | 2.21 ± 0.33 | 2.51 ± 0.28
LSVLPQLEFKLKSNDNEERLQVVK [PDS5B] | 3.77 ± 0.11 | 3.7 ± 0.25
WYQPSFHGVDLSALRGAAVDEYFR [CARM1] | 2.71 ± 0.18 | 2.75 ± 0.34
PAFLKWLSLASLLVYVAAFSIGLG [SLC2A12] | 3.28 ± 0.15 | 3.48 ± 0.79
LGRFNDINVPIRLECVKFASHCLM [PDS5B] | 2.83 ± 1.6 | 2.41 ± 0.94
EQQQILIRQLQEQHYQQYMQQLYQ [ACBD3] | 2.2 ± 0.38 | 2.24 ± 0.3
